The subject of the series is MBP-DDX3X (human). Put plainly: EMSA. As to conditions: DDX3X EMSA: 40 mM Tris-Cl pH 8, 50 mM NaCl, 0.5 mM MgCl2, 2 mM DTT, 0.01% NP40, 2 mM AMP-PNP/MgCl2, 37 C 30 min, UV 254 nm 3 min, 6% native PAGE in 0.5x TB + ….

Take endogenous tRNA-LysUUU/CUU: where the note is “native post-transcriptional modifications (not listed)”, the Kd is 83.4 nM.
With synthetic tRNA-LysUUU, where the note is “none (unmodified)”, the Kd amounted to 431 nM.

The record behind these values is article PMC9943664.
